In the supplement of paper PMC9170038:

Test system: MS2 coat protein
Experiment: apparent KD of MS2 coat protein; designed switch direction (-1 OFF switch, 1 ON switch): -1; higher = weaker reporter binding
Procedure, shortened: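 An oligonucleotide input, 200 uM small-molecule ligand, or no input was present during titration of SNAP-549-labelled MS2 coat protein, which was doubled from 0.7 or 1.5 nM to 3 µM. Designed RNA switches had been transcribed on Illumina chips by stalled E. coli RNA polymerase. Apparent KD per design is the median over clusters of curves fitted to normalised cluster fluorescence.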

[1] = Eterna round: R95, input ligand: microRNA oligo, concentration not stated
[2] = input ligand: microRNA oligo, concentration not stated

Sequence | apparent KD of MS2 coat protein [1] | apparent KD of MS2 coat protein (input ligand: FMN 200 uM) | apparent KD of MS2 coat protein (input ligand: none) | also measured
GGUGCGUAUGUGAGGAUAUGCUGGUCCUUGGAUCGGCAGAAGGCACAUGAGGAUCACCCAUGUGGUGUCGUACU [salish99_Bmod_ex4_082] (puzzle: Brourd's mod of Exclusion 4) | 173 nM |  |  | 
CCGUCCCGCCCUGGGUGGGACAUGAGGAUCACCCAUGUGGGUUUUCUUUCUUUCACCCGGGCGGGCGGGCGGGCUGG [sensor,turn-off variant1(1)] (Eterna round: R97, puzzle: Sensor, turn-off variant 1) |  | 20.4 nM | 54.8 nM | 
GGCAUCAUCUGGUCCUGAUACAUGAGGAUCACCCAUGUUCUACUGUAGGUCGUAAGCAGCUUACCCUCUUAGGCACA [JR_Sensorv2_tov_Sub1249] (Eterna round: R96, puzzle: Sensor v2, turn-off variant) |  | 380 nM | 308 nM | apparent KD of MS2 coat protein [2]: 227 nM
GCGCAAACGCCAAAAGGCGAAAUUACAUGAGGAUCACCCAUGUAGGAUAUCGAUUGCUUUGCAGUCGAGAAGGACAUGAUGCGC [JL ENG3 3.80 Mod 1] (Eterna round: R96, puzzle: Exclusion NG 3) |  |  |  | apparent KD of MS2 coat protein [2]: 13.6 nM
AAUAAAUAGGAGGAUAUCGUAUCGGAAACGAUACGAGAAGGUCUAACAUGAGGAUCACCCAUGUUCCUCAAUAA [Mat - Exclusion 6 - Eli Mod - D45] (puzzle: Exclusion 6) | 39.4 nM |  |  | 
GCCGUGCAAGGAUAUCGCGGAAAGAACAUGAGGAUCACCCAUGUGAUCACCUUCUAAAUGCGAGAAGGUGCUAAAA [Axebied] (puzzle: Exclusion 5) | 56 nM |  |  | apparent KD of MS2 coat protein (Eterna round: R95, input ligand: FMN 200 uM): 75.7 nM; apparent KD of MS2 coat protein (Eterna round: R95, input ligand: none): 81.4 nM
GAAAACGAUGAGGAUAUAUGAUAUCAAAGCAUCAUAGAAGGCAUCACAUGAGGAUCACCCAUGUGAUCUUCUUG [Mat - Exclusion 6 - JL Mod - D31] (Eterna round: R97, puzzle: Exclusion 6) |  | 164 nM | 26.6 nM | 
ACAUGAGGAUCACCCAUGUCCGGCUGGUCUGUUCCGGCUGUCGAGGAUAUAGUCCGGUGUUCGCGCUAGAAGGCGAGGGCUGGA [Aenatbe mod 48] (Eterna round: R96, puzzle: Exclusion NG 3) |  | 88 nM | 43.6 nM | apparent KD of MS2 coat protein [2]: 29.9 nM
GCAUGUUAUGUCAGGAUAUACCUAUGGAUACAUAGGUAGAAGGGACAUGAGGAUCACCCAUGUCCUAAUCAUGC [Fiskers BMX 4 - 23] (puzzle: Brourd's mod of Exclusion 4) | 12.5 nM |  |  | 
UUGUUUGUAGUGAGGAUAUCGUUGAGGAAGAGGAUCGAGAAGGCACAUGAGGAUCACCCAUGUUAGAUGUGGUU [JR_BMOE4_Sub082] (Eterna round: R96, puzzle: Brourd's mod of Exclusion 4) |  | 261 nM | 161 nM | apparent KD of MS2 coat protein [2]: 114 nM
ACUCGACAUGAGGAUCACCCAUGUGAGGAUAUGGCCUGUAUGGCGUGAGCUGGCUCUGUCAGAAGGCGCGUGGG [salish99_ex1_r4_046] (Eterna round: R97, puzzle: Exclusion 1) |  | 55.5 nM | 59 nM | 
CCGGAAAUGGAGGAUAUAGGAGUCGAUAGACACCUAGAAGGUCAGACAUGAGGAUCACCCAUGUGUCCUACCGG [Fiskers Ex 6 - 88] (puzzle: Exclusion 6) | 14.9 nM |  |  | 
AAUGUCUGAGGAUAUCGUUUUUUGUACAUGAGGAUCACCCAUGUCCAAUUUUGUAUAUUACGAGAAGGCAGUGGAA [JR_E5_Sub089] (Eterna round: R96, puzzle: Exclusion 5) |  | 23.9 nM | 15 nM | apparent KD of MS2 coat protein [2]: 10.7 nM
AUGGUACAUGAGGAUCACCCAUGUUAGGAUAUCGCGUGAGGUAAAACUUACACACACACGAGAAGGGACGACAU (puzzle: Exclusion 1) | 55.1 nM |  |  | 
UAUUAAGCAAGCAGAUCCCACAUGAGGAUCACCCAUGUGCUCGUCUUAUAAGGUACUGUGACAAAAGUCACGGUACC [Mat - Sensor, turn-off var - Eli Mod - D74] (Eterna round: R97, puzzle: Sensor, turn-off variant 1) |  | 121 nM | 135 nM | 
UUAACCAGAGGAUAUGCGAAUAAAUAAAACUUUUUUUUUUAACAUGAGGAUCACCCAUGUAGAAGGCUGCAUUU [Ex2 #30] (Eterna round: R97, puzzle: Exclusion 2) |  | 25.4 nM | 25.1 nM | 
CCUCCACAUGAGGAUCACCCAUGUCAGGAUAUCGUGUGUUUUUUUUCGGUCGCGCGUGCGAGAAGGGACGUCUU (puzzle: Exclusion 1) | 23.7 nM |  |  | 
